Test results reported in US20260263521A1 (AIMED BIO, published 2026).

Key:
[1] = molecular target: T1, human CD200RLa (Sino Biological, 11620-H08H) recombinant protein (human, UniProt Q6Q8B3 24-239); experiment: ELISA, plate-bound human CD200RLa (2 ug/mL), antibody 0.0192-300 nM, O.D 450 nm; panel 'recombinant human CD200RLa'
T1 construct: Bought; construct not described
T1 sequence (looked up): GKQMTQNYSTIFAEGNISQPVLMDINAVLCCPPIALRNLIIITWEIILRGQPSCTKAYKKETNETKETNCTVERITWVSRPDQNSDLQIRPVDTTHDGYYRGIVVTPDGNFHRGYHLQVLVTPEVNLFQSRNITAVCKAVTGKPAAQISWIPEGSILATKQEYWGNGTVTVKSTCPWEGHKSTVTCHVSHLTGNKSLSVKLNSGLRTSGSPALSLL
Procedure, shortened: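 Plates coated overnight (16 h, 4° C) with human or cynomolgus CD200RLa recombinant protein, blocked with 3% skim milk; bound antibody detected by TMB colour development, reaction stopped before reading.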

[2] = molecular target: T2, human CD200R1 expressed on cells (Jurkat-CD200R1, U937-CD200R1, HH cells) (human, UniProt Q8TD46 25-348); experiment: flow cytometry, Jurkat-CD200R cells
T2 construct: whole, on cells; also called HH (CRL-2105); cell surface-expressed CD200R1
T2 sequence (looked up): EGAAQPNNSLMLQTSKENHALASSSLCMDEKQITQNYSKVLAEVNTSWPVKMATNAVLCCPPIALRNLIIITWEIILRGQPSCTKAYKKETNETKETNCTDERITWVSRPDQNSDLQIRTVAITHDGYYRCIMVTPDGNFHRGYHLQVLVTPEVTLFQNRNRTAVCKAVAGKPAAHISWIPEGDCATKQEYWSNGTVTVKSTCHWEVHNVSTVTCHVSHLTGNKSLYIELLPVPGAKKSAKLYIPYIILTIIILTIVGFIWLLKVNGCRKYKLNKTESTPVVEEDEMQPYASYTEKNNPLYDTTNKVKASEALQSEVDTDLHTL

[3] = molecular target: T3, recombinant human CD200R1 Fc chimera protein, CF (R&D systems, 3414-CD) (human, UniProt Q8TD46 27-266); experiment: ELISA, plate-bound human CD200R1-Fc (2 ug/mL), IgG 0.0192-300 nM, anti-human IgG F(ab')2-HRP, OD 450 nm; panel 'human CD200R1'
T3 construct: Bought; also called CD200R1-Fc protein; human CD200R1 Fc protein; Fc part of the bought chimera not given
T3 sequence (looked up): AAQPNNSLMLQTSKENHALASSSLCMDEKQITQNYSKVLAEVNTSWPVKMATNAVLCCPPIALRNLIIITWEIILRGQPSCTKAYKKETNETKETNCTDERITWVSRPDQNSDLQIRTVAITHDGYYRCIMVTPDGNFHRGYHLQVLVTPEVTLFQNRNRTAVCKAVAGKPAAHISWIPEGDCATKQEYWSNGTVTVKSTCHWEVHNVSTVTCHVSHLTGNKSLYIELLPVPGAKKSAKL
Description: 96-well plates were coated with human CD200R1 (R&D systems, 3414-CD) and mouse CD200R1 protein (R&D systems, 2554-CD) at a concentration of 2 μg/mL at 4° C. for 16 hours and then were blocked with 3% skim milk.
Color was developed with a TMB substrate solution (Thermo Scientific, 34029, 1-Step™ TMB-ELISA Ultra Substrate Solution). The color reaction was stopped with stop solution (Invitrogen, SS04, ELISA Stop Solution). The absorbance was measured at an optical density of 450 nm.

[4] = molecular target: T4, monkey CD200R1 (ELISA antigen of Example 14) (monkey); experiment: ELISA on monkey CD200R1, normalized absorbance at 450 nm, 0.0192-300 nM; panel 'Cyno CD200R1'
T4 chain: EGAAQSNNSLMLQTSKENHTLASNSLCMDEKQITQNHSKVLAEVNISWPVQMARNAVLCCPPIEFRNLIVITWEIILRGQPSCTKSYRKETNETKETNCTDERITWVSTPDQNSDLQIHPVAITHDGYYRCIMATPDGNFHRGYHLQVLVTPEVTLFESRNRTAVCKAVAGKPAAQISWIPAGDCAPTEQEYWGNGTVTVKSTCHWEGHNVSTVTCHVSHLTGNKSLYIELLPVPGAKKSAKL

[5] = molecular target: T2, human CD200R1 expressed on cells …; experiment: flow cytometry on Jurkat-CD200R1 and HH cells, 500 nM antibody in IgG1 form
Procedure, shortened: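 Cells at 1×10⁵ per well incubated with antibody 1 h at 4 °C, then Alexa-647 anti-human IgG (H+L) secondary for 30 min at 4 °C. After two washes, binding read by flow cytometry.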

B1: P001009 (IgG) (antibody, V domains shown)
VH: EVQLLESGGGLVQPGGSLRLSCAASGFTFSSYDMSWVRQAPGKGLEWVSWISHGGGSIYYADSVKGRFTISRDNSKNTLYLQMNSLRAEDTAVYYCARDAPAYSAPLFDYWGQGTLVTVSS
VL: QSVLTQPPSASGTPGQRVTISCSGSSSNIGNNAVNWYQQLPGTAPKLLIYYDSNRPSGVPDRFSGSKSGTSASLAISGLRSEDEADYYCAAWDDSLSGYVFGGGTKLTVL
notes: also called P001009 WT; P001009 wt
In the case of B1, the binding result [1] is reported as “no binding (tested: 300 nM)”, the EC50 [2] is reported as 0.22 nM and the “EC50 (read off the curve)” value [3] is reported as about 0.5 nM. The “EC50 (read off the curve)” value [4] was about 5 nM and the “MFI normalized to P001017 (chimeric OX108), %” value [5] was over 50%.
